{"source": "paper PMC5938751", "key": {"[1]": {"tested_on": "N[C@@H](CCC(=O)NP(=O)(O)O)C(=O)O", "experiment": "purified protein", "conditions": "fixed 5.0 mM MgCTP, pH 8.0, 25 °C"}, "[2]": {"tested_on": "Nc1ccn([C@@H]2O[C@H](COP(=O)(O)OP(=O)(O)NC(=O)CC[C@H](N)C(=O)O)[C@@H](O)[C@H]2O)c(=O)n1", "experiment": "purified protein", "conditions": "pH 8.0, 25 °C"}}, "data": [{"substance": "Cj1416 (Campylobacter jejuni subsp. jejuni NCTC 11168 = ATCC 700819)", "values": [{"measurement": "Km", "setting": "[1]", "result": "120 ± 30", "unit": "µM"}, {"measurement": "kcat", "setting": "[1]", "result": "0.95 ± 0.1", "unit": "s⁻¹"}]}, {"substance": "Cj1417 (Campylobacter jejuni subsp. jejuni NCTC 11168 = ATCC 700819)", "values": [{"measurement": "Km", "setting": "[2]", "result": "28 ± 3", "unit": "µM"}, {"measurement": "kcat", "setting": "[2]", "result": "0.567 ± 0.02", "unit": "s⁻¹"}]}]}
